Drawing on US20220098269A1 (IMMATICS BIOTECHNOLOGIES, published 2022), this text covers peptide exchange yield for 60 molecules.

One assay concerns the target T1, HLA-A*01:01 (human).
T1 construct: Peptide-receptive MHC class I monomer after UV cleavage of a UV-sensitive ligand; captured on streptavidin plates, detected with anti-b2m
In words: UV-ligand exchange, anti-b2m ELISA; peptide exchange yield grade. An excerpt: (§1) Candidate peptides for T cell based therapies according to the present invention were further tested for their MHC binding capacity (affinity). The individual peptide-MHC complexes were produced by UV-ligand exchange, where a UV-sensitive peptide is cleaved upon UV-irradiation and exchanged with the peptide of interest as analyzed. Only peptide candidates that can effectively bind and stabilize the peptide-receptive MHC molecules prevent dissociation of the MHC complexes. To determine the yield of the exchange reaction, an ELISA was performed based on the detection of the light chain (β2m) of stabilized MHC complexes. The assay was performed as generally described in Rodenko et al. (Rodenko et al., 2006).
(§2) 96 well MAXISorp plates (NUNC) were coated over night with 2 μg/ml streptavidin in PBS at room temperature, washed 4× and blocked for 1h at 37° C. in 2% BSA containing blocking buffer. Refolded HLA-A*02:01/MLA-001 monomers served as standards, covering the range of 15-500 ng/ml. Peptide-MHC monomers of the UV-exchange reaction were diluted 100-fold in blocking buffer. Samples were incubated for 1 h at 37° C., washed four times, incubated with 2 μg/ml HRP conjugated anti-β2m for 1h at 37° C., washed again and detected with TMB solution that is stopped with […]. Absorption was measured at 450 nm. Candidate peptides that show a high exchange yield (preferably higher than 50%, most preferred higher than 75%) are generally preferred for a generation and production of antibodies or fragments thereof, and/or T cell receptors or fragments thereof, as they show sufficient avidity to the MHC molecules and prevent dissociation of the MHC complexes.
On the technique in general: An ELISA detects its analyte on a solid surface through an enzyme-linked reagent.

The next assay deals with T2, HLA-A*24:02 (human).
T2 construct: Peptide-receptive MHC class I monomer after UV cleavage of a UV-sensitive ligand
The assay is described as above.
Source text: as §1, §2

Consider VTETMGIDGSAY, for which, in the assay with HLA-A*01:01, the peptide exchange yield was no less than 75%.
Consider VYTDISHHF, for which the peptide exchange yield in the assay with HLA-A*24:02 is no less than 75%.
In turn, FFQDSTFSF had a peptide exchange yield in the assay with HLA-A*24:02 of no less than 75%.
Molecule LSDLTCNNY registered a peptide exchange yield with HLA-A*01:01 of no less than 75%.
As to TANYDTSHY, the peptide exchange yield with HLA-A*01:01 was in the range of 20 to 50%.
Take WLDRSTILY: the peptide exchange yield with HLA-A*01:01 is no less than 75%.
VTRDDTASY yielded a peptide exchange yield in the assay with HLA-A*01:01 of 20 to 50%.
For YWDETLKEF, the peptide exchange yield with HLA-A*24:02 fell in the range of 50 to 75%.
As for HADLTTLTF, the peptide exchange yield with HLA-A*01:01 is 20 to 50%.
LTEVEKDATALY came in with a peptide exchange yield in the assay with HLA-A*01:01 of no less than 75%.
In the assay with HLA-A*24:02, SYDETKIKF gave a peptide exchange yield of 10 to 20%.
In the assay with HLA-A*01:01, QVDGSLLVI displayed a peptide exchange yield of 20 to 50%.
Molecule WSDWSNPAY registered a peptide exchange yield in the assay with HLA-A*01:01 of no less than 75%.
With LSDLSLADI, the peptide exchange yield with HLA-A*01:01 was 20 to 50%.
Turning to MTDVDRDGTTAY, the peptide exchange yield in the assay with HLA-A*01:01 was no less than 75%.
The same measure, in the same setting: to PSDLSVFTSY belongs no less than 75%.
In the assay with HLA-A*24:02, VFHDHTYHL gave a peptide exchange yield of no less than 75%.
Still for that read-out and setting: the figure for FFTDKTLSF is no less than 75%.
Turning to GQYDDSLQAY, the peptide exchange yield with HLA-A*01:01 lay in the range of 20 to 50%.
GTDQTGKGLEY: in the assay with HLA-A*01:01, the peptide exchange yield was 50 to 75%.
Regarding FHYDDTAGYF, in the assay with HLA-A*24:02, the peptide exchange yield is 10 to 20%.
VHDFTLPSW gave a peptide exchange yield in the assay with HLA-A*24:02 of 20 to 50%.
Regarding NHITDTSLNLF, in the assay with HLA-A*01:01, the peptide exchange yield fell in the range of 20 to 50%.
Take QYQDTTVSF: the peptide exchange yield in the assay with HLA-A*24:02 fell in the range of 50 to 75%.
With VTQDDTGFY, in the assay with HLA-A*01:01, the peptide exchange yield was no less than 75%.
For the molecule EVQDHSTSSY, the peptide exchange yield with HLA-A*01:01 lay in the range of 20 to 50%.
With FTDLITDESINY, the peptide exchange yield with HLA-A*01:01 is no less than 75%.
For the molecule YIDDVTLI, the peptide exchange yield with HLA-A*01:01 was 20 to 50%.
The molecule YFVDVTTRI yielded a peptide exchange yield in the assay with HLA-A*24:02 of 50 to 75%.
VTDVTEEHY yielded a peptide exchange yield with HLA-A*01:01 of no less than 75%.
In the case of ITDTSLNLF, in the assay with HLA-A*01:01, the peptide exchange yield was no less than 75%.
Consider RVDDITDQF, for which the peptide exchange yield with HLA-A*01:01 fell in the range of 20 to 50%.
The same measure, in the same setting: the figure for EVEGVIDGTYDY is no less than 75%.
As for ISDGMDSSAHY, the peptide exchange yield with HLA-A*01:01 was no less than 75%.
In the assay with HLA-A*01:01, RSLDCTVKTY yielded a peptide exchange yield of 50 to 75%.
In turn, YSIDVTNVM displayed a peptide exchange yield with HLA-A*01:01 of 50 to 75%.
In turn, HVDNSNLNY had a peptide exchange yield in the assay with HLA-A*01:01 of no less than 75%.
On the same count and under the same terms, the figure for PSDGSMHNY is no less than 75%; for ILFSDSTRLSF it is 50 to 75%.
In the assay with HLA-A*24:02, IYNFRLWDF displayed a peptide exchange yield of no less than 75%.
As to TSDTSQYDTY, the peptide exchange yield with HLA-A*01:01 is 50 to 75%.
The molecule RSIDVTGQGF displayed a peptide exchange yield in the assay with HLA-A*01:01 of 20 to 50%.
IYLDRTLLTTI had a peptide exchange yield with HLA-A*24:02 of no less than 75%.
In the assay with HLA-A*01:01, TFVDASRTLY showed a peptide exchange yield of no less than 75%.
KLTDNSNQF: the peptide exchange yield in the assay with HLA-A*24:02 fell in the range of 20 to 50%.
Regarding IFDETGRF, in the assay with HLA-A*24:02, the peptide exchange yield was 20 to 50%.
In turn, GYIDDVTLI displayed a peptide exchange yield in the assay with HLA-A*24:02 of 50 to 75%.
LTNDQTLRL yielded a peptide exchange yield with HLA-A*01:01 of 50 to 75%.
Same read-out and setting: to GVDDTSLLY belongs no less than 75%; to ITDDTVQTY, no less than 75%.
In the assay with HLA-A*01:01, ILPDITTTY returned a peptide exchange yield of 20 to 50%.
FYDNSVIIF had a peptide exchange yield with HLA-A*24:02 of 20 to 50%.
As to IYPDASLLIQNI, the peptide exchange yield in the assay with HLA-A*24:02 was no less than 75%.
Take HVSDVTVNY: the peptide exchange yield in the assay with HLA-A*01:01 lay within 20 to 50%.
HVKDATMGY registered a peptide exchange yield with HLA-A*01:01 of 50 to 75%.
With ISDITEKNSGLY, the peptide exchange yield in the assay with HLA-A*01:01 is no less than 75%.
For GTDKQDSTLRY, the peptide exchange yield with HLA-A*01:01 is no less than 75%.
The molecule FTDTSSYEY showed a peptide exchange yield with HLA-A*01:01 of no less than 75%.
For the molecule FYDLSIQSF, the peptide exchange yield with HLA-A*24:02 is no less than 75%.
NYLLYVSDF yielded a peptide exchange yield with HLA-A*24:02 of no less than 75%.
